Test results: the DeepSol protein solubility set

Assay: soluble on expression in E. coli; label from the status in PepcDB or PDB records

Soluble on expression in E. coli, not soluble:
MGSDKIHHHHHHMNYLKLKQDVQAGRVAPVYFMYGTELFLMEDLIQDILSVTLSDEERDMNVSSYSLTDVPIEAALEEAETVPFFGSKRVVILKDAALFTSQKLDVEHDVKRLEQYILNPVPETVLLIMAPYEKLDERKKITKLIKKESLVLEAKPLDEGEAKAWLSSLASELQVEMDEKAIETLLGMTGLRLTQLASEMNKLALYVGEGGIIRSEDVTLLVAKTLDQNIFDLIDFAINQRTHQALSLYHELLKQKEEPLKLLALLTRQFRIMYQVKELGRRGYTPNQMAKPLKIHPYVAKLAGKKAASMSDQLLYSLIEKAADTEFAIKSGKVDKVLALELFLLTMGSRESVG
MGSDKIHHHHHHMPAFIKKELIMKLQGAGLGYRRNLAEDFLQLPSNNAIQFIEVAPENWSKMGGMARYQFDQAAERFPLAVHGLSLSLGGQAPLDRELLRNTKALINQYNSSFFSEHLSYCECEGHLYDLLPMPFTEEAVKHVAQRIRDVQDFLGLQISLENTSYYLHSPTSTMNEVEFLNAIAQEADCGIHLDVNNIYVNGVNHGLLDPYIFLDQVDVKRVNYIHIAGHDEEHSAAQVVENSANESFNKVKGAYRHLPELLIDTHGEAVKGTVWDLLEYAYQRLPTIPPTLLERDFNFPPFAELYAEVEHIAQLQQKYAHTEVMSYAA
MGSDKIHHHHHHMPAMQHTQPSRPQLVYLAFGPATYHQEACFSIVSALAQLGSAAGEAMDIQVYTDNAQPYARLPVTVHLLDEATRQAWNAPHGYHFRSKHVLLRQVLQQHPLAVLIDTDTFFRTSPLHLFARVAPNRLLCNAIGTRYGADQKCLLYKNLLAILESRGLADCQMPLVNSGVIGLTAENCDTLDRSIAMMDEFYPLAREAYTLEEFCLAVAAYRNLELAECTDVIHHYWSRKAQFRAKIQAWLRKHEHDPLSPPALADVALVNDQLPRPPTLHRLGYKALSLTLPSHERQFARELLYGCYPYPNEFDRACASAWWDKALENLNDRYGHVEPERLRQCLRHPGLRLSLGERRKDIEAHLLRSTQA
MGSDKIHHHHHHMPANDFVSPDSIRAQFSAAMSLMYKQEVPLYGTLLELVSEINQQVMAQQPEVAEALRWTGEIERLDQERHGAIRVGTAEELATIARLFAVMGMQPVGYYDLSSAGVPVHSTAFRAVHEQSLHVSPFRVFTSLLRLELIDNPQLRELAQSILAKRQIFTSRALELIAQCEREGGLDAADAETFVQEALHTFRWHQDATVTAEQYQQLHDQHRLIADVVAFKGPHINHLTPRTLDIDAIQLGMPAKGIPPKAVVEGPPTRRHPILLRQTSFKALQETVAFRDQQGREGSHTARFGEIEQRGAALTPKGRQLYDKLLDATRVALGGAPAEANAERYMALLQANFAEFPDDLAQMREQGLAYFRYFATEKGLAARDQEGRPTTLQGLIDAGHVHFEALVYEDFLPVSAAGIFQSNLGDDAQAEYGSNANREAFEAALGLQVQDELALYAQSERRSLQACAQALNLGSM
MGSDKIHHHHHHMPEEIVTRVITFFFPYDSKVEGKNDCVDTYKIHTFPEYENSDWYRGDPRDHSNGQPNGHEMWGHGQIGWWQKDENGWHWYWEDESNMPRPTQGLSEIMSTTTTTGSPLSIYSTTPSDAPETYSDTVLSVVLGF
MGSDKIHHHHHHMPGFSADLDCVPGSIRSQVEENYRVWRRAWITSSAQPAVNSSGRALRLQPRHTAQRRTASESGADAGGELNGITIPTTATTRYAERRGISIVRTYADEGKSGLRIDGRRALQQLIKDVEGGTADFQIILVYDVSRWGRFQDADESAYYECICRRAGIQVAYCAEQFENDGSPVSTIVKGVKRAMAREYSRELSAKVFAGQCRLIELGYRQGSPAGFGLRRVLIDQQGSSKGMLARGEQKSLQTDRVVLMPGPGDEIRIVHQIYRWFIDEGLGDSEIAMRLNSIRVRTDFDRYWTRATVHEVLTNEKYIGNNVYNRISFKLKKLRVVNTPDMWDQKGRRV
MGSDKIHHHHHHMPITFVDRESELKFLESLWKRRNSFVPVYGRRRIGKTRLVKEFIKGKPSVYYLSRNSSYNDNLYGFSQVVLEAYPSPYLTPKSFSTFTDIFRYLSEKGKVVVVIDEFPYLINSDKRILSEFQYIIDEIVRNSEIHLILVGSSIGMMEEHVLSQKSPLYGRRDGQIRLHSLDFFSSWKLLGVSLEEAIKIYGVTGGIPAYLILFKKFEDLKNVAFSKQGFLYAEADFLLSSELREPRVYKLILKAIAEGKRRFNEISTFTGIPRPNLFKYIEVLERLGLLRREAPITAPPKTKNTRYKIVDNYIAFYFRFIEKYRHEIELESINFWEEFLEDYNNYLGEVFEDIACQFLVRLNKKRMFPFRFSKIGRWWHKNEEIDLVALDKREKRASFIEVKWKTLKEGEARSILRDLERKSKLVGLDYWNKNYGLIAKHIEGKENLREEGFLAWDLRDFELVKKE
MGSDKIHHHHHHMPKILKFNEEARRALERGVDKVANAVKVTLGPKGRNVVIEKSWGSPTITNDGVSIAKEIELEDKFENLGAQLVKEVASKTNDVAGDGTTTATVLAQAMIKEGLKNVAAGANPILLKRGIDKAVEKAVEEIKKVSKKLSGREDIAHVAAISANSAEIGELIAEAMDKVGEDGVITVEDSKTLETYVEFTEGMQFDRGYISPYFVTDAEKMEVVLKEPFILITDRKLSAVKPLIPILEKVAQTGKPLLVIAEDVEGEVLTTLVLNKLKGTLQSCAVKAPGFGERRKAMLQDIAILTGGQVASEELGINLEDLTLEDLGRADLVRVKKDETIIIGGKGDPEAIKKRIAQIKAQIEETTSEYEKETLQERMAKLAGGVAVIKVGAATETELKEKKHRIEDALSATRAAVEEGIVPGGGVTLLRARKAVEKVIEELEGDEKIGAQIVYKALSAPIKQIAENAGYDGAVIIEKILSNDDPAYGFDALRGEYCNMFERGIIDPAKVTRSALQNAASIAGMLLTTEVLIVEKPEEKKETPSMPEEF
MGSDKIHHHHHHMPKITKIEVQKKNKERFNLFLDEQFEMGIDIDTLVKFNLKKGQQLEAADMAEIQKYDHYRIGLNKAIQYLSYKKRTEKEVIQYLQKEEISEQAISEVIEYCYREKLIDHQDYAESLKNTMIRTTDKGPKIYQQKLYQLGIEPNIIEIFTELYREQQELDDIIQIAEKISKTKKGPQNKVKEKVMQSLIQKGFEMETIHAVLNEMDFTQDEAVLDDLLQRDLEKIYNKNRKKYTQQKLISKTIEGLMRKGYKYDKIKAKLEESGIADGTEEIE
MGSDKIHHHHHHMPMIHYIFNREIVPPAIEPLLKQLFSGQNFTQSDRLLGYSKGRGITWFLNTQAELGINIVLRHYYRGGLFGKVVKDRYLFQRIDQTRAVQEFNLLTQMQRWHLPVPRPIAVEINKQSIFYRAKIMLEKIEHTQDLSKLLQTQPLVAEQYQQLGQLIRQLHDHQIHHSDLNIHNILLDDNGKFWLIDFDKCCIKAGEEWKQANLNRLLRSFHKEQTRLGIQFHQQNWQSLLTGYQQHNQGDNR
MGSDKIHHHHHHMPSTFESQLFFSRPFLSKRQIQRAQKNTISDYRNYNQKKLAVFKFLSDLCVQLKFPRKTLETAVYFYQRYHLFNRFETEVCYTVATSCLTLGCKEVETIKKTNDICTLSLRLRNVVKINTDILENFKKRVFQIELRILESCSFDYRVNNYVHIDEYVIKIGRELSFDYKLCNLAWVIAYDALKLETILVIPQHSIALAILKIAYELLDNKNWSSKRYSLFETDEKSVNEAYFDIVNFYINSFDMCDLQRHLPADLLPIGVERFMELKKNAGPESGLPQIPDHLLNADPYITITRDNNVQERRYVLSLELINGESSINSSTRHA
MGSDKIHHHHHHMPTSALDGKDTAAIQAATAEVAVYDRSNWGLIRVSDDDRLRFLHNQSTNDFQSLKPGQGCETVMVTSTARTIDLVSSYVLNDAVILLVSSSRREFLLQWLDRYIFFADKVQLTDITDETATLSIIGPGSDAVVEKLGAGEIIGQPHGNHITIDGGVVAAVGSGLASPGYTLILPVSQKQQVWQQILDSGAVELSDRAWDTLRILQGRPAPDAELTDDYNPLEVGLWQTISFSKGCYIGQETIARLNTYKGVKQHLWGIRLNAPAEIGDSINIGDEKVGKLTSYTETPDGYFGLAYIRSKAGGVGLKVQVGNSEGEVVAIPFVSHEYP
MGSDKIHHHHHHMPYSLHLPGYSIGDNAYEKIDAIVSTYGSSVAVIGGKTALEKSRPRLEAALAHSGIEVVDWIVYGHNCTYERVDALCGMPTVQQADMIFGVGGGRAVDTVKVVANRLGKPLFAFPTLGSNCAAATNLSVVYKDDDSLAGYDFQRGPCHHVFIDTTVIAQSPAELLWAGIADGMSKECEVKLQSRGRNLSHAPLMGRNVCSAVTPALMDFGLQALEDCRAGRSSQAIEEVALAIIMTCGYVSNMAVDPGQAYYYNSSLAHAFYNSSTAFPECVGKHLHGEIVSYGVLALLQYDGDMETKRRYVEFYKQMGFPLTLADLDLQESDIPELVSHVPATTEWKTGDFDLERFAQAIIDAQVFA
MGSDKIHHHHHHMQAKLTKKEFIEWLKTSEGKQFNVDLWYGFQCFDYANAGWKVLFGLLLKGLGAKDIPFANNFDGLATVYQNTPDFLAQPGDMVVFGSNYGAGYGHVAWVIEATLDYIIVYEQNWLGGGWTDRIEQPGWGWEKVTRRQHAYDFPMWFIRPNFKSETAPRSIQSPTQASKKETAKPQPKAVELKIIKDVVKGYDLPKRGGNPKGIVIHNDAGSKGATAEAYRNGLVNAPLSRLEAGIAHSYVSGNTVWQALDESQVGWHTANQLGNKYYYGIEVCQSMGADNATFLKNEQATFQECARLLKKWGLPANRNTIRLHNEFTSTSCPHRSSVLHTGFDPVTRGLLPEDKQLQLKDYFIKQIRVYMDGKIPVATVSNESSASSNTVKPVASAWKRNKYGTYYMEESARFTNGNQPITVRKIGPFLSCPVAYQFQPGGYCDYTEVMLQDGHVWVGYTWEGQRYYLPIRTWNGSAPPNQILGDLWGEIS
MGSDKIHHHHHHMQATTATPHDIVFLFDCDNTLLDNDHVLADLRAHMMREFGAQNSARYWEIFETLRTELGYADYLGALQRYRLEQPRDTRLLLMSSFLIDYPFASRVYPGALNALRHLGARGPTVILSDGDVVFQPRKIARSGLWDEVEGRVLIYIHKELMLDQVMECYPARHYVMVDDKLRILAAMKKAWGARLTTVFPRQGHYAFDPKEISSHPPADVTVERIGDLVEMDAEWLLAEKR
MGSDKIHHHHHHMQCIRVGVIGAGGVAQVEHIPNLLKLHRQFKILGVYDPSRKVRAFVGEEFGLETFSDLDALLAMPLDAVVIASPDALHREQSLAAFARGLHVFCEKPLCYGAQDIDQLIAARDRAGKVLQVGYMKRFDPSYEAALNMLPGTARTLRSVSVEVNDPDAWPFIRHASTCRGDDVAAELIASTEARQREQVDRAVPGLDDPHAFRGFVGAYSSSIVHDVNAVHGLLDALGVADGEIVGASLFAKGEAGQGTVRLLDGQALWTMAHIATPGLPDYRERITLHFDDASLELEFPSPYLNHQPTRLTIRTGDGHTLSSRDIRSGYEEAFVEELKGFWSAIVEGTAVRNTAEHARRDMTLLAGLTRHHLDQSKQSGVRP
MGSDKIHHHHHHMQDFSNLVEKVENTLIPYFRKIEKRALFNQEKVLNAFHHVKASESDLQGSTGYGYDDFGRDHLEQIYAHTFKADDALVRPQIISGTHAITLALQSTLKNNDELLYITGSPYDTLLEVIGINGNGVESLKEYGVRYNEVELRDGRIDIPKVITAINDNTKVVAIQRSKGYDQRPSITINEIEQAITSIKEVYPNIIIFVDNCYGEFVEDKEPIEVGADLIAGSLIKNPGGGLAKIGGYIAGRQDLIERCGYRLTAPGIGKEAGASLNSLQEMYQGFFLAPHVVSQSLKGALFTSLLLEKINMKTSPKYNVYRTDLIQTVQFETKEQMISFCQSIQHASPINAHFSPEPSYMPGYEDDVIMAAGTFIQGSSIELSADGPIRPPYEAYVQGGLTYEHVKLAVTRAVQHMQENNLL
